Source: PMC6245143, “Small-animal SPECT/CT imaging of cancer xenografts and pulmonary fibrosis using a ^99mTc-labeled integrin αvβ6-targeting cyclic peptide with improved in vivo stability” (Biophysics Reports, 2018)
Read-outs that look alike come from different tables or passages of the source. Where a SMILES comes first, the peptide text is derived from it. Bridges are numbered along the chain shown (N, C = ends). Where no end group is shown, it is not given here. The star is where a group is joined. HYNIC = NNc1ccc(C(=O)*)cn1

Assays:
[1] = mouse; cited from earlier work
From the text: Due to the critical role of integrin αvβ6 in tumorigenesis and fibrogenesis, it has emerged as an appealing target for diagnostic imaging, prognosis evaluation, and therapeutic responses monitoring (Agarwal [2014]; Cantor et al. [2015]; Saini et al. [2015]; Yang et al. [2015]). Therefore, noninvasive and quantitative imaging of integrin αvβ6 expression by molecular imaging techniques would be of great potential for better management of these diseases. Previous studies have focused on the development of positron emission tomography (PET) and single-photon emission computed tomography (SPECT) ra ...

[2] = Biodistribution in BxPC-3 tumor-bearing nude mice; details: female, BALB/c nude, in vivo, iv, total radioactivity; for tissue uptake at 1 h: 1 h after injection
Experimental: (§1) All animal experiments were performed in accordance with the guidelines of Peking University Animal Care and Use Committee. To establish the BxPC-3 subcutaneous tumor model, BxPC-3 cells (1 × 10^7 in 100 μl of PBS) were inoculated subcutaneously into the right front flanks of female BALB/c nude mice. The animals were used for in vivo studies when the tumor size reached 200–300 mm^3 (3–4 weeks after inoculation). For the pulmonary fibrosis mouse model, BLM (1.5 units/kg, 50 μl in PBS) or PBS (50 μl; as a vehicle control) was administered once into the C57/BL6 mice by intratracheal injection. On day 21 (based on pilot studies), the mice with well-established pulmonary fibrosis were used for SPECT/CT imaging.
Biodistribution studies were performed using female BALB/c nude mice bearing BxPC-3 xenografts. Mice received an injection via the tail vein of 370 kBq (10 μCi) of ^99mTc–HYNIC–cHK to evaluate the distribution of the radiotracer. The blocking experiments were also performed by coinjection of ^99mTc–HYNIC–cHK with a saturating dose of the HK peptide (500 μg per mouse). At 0.5, 1, and 2 h after injection, the animals were sacrificed, and the tumors and the organs/tissues of interest were dissected and wet-weighed, and the radioactivity in the tissue was measured using a γ-counter. The results are presented as percentages of injected dose per gram of tissue (%ID/g). Values are expressed as mean ± SD (n = 4 per group).

BxPC-3 tumors = test: Small-animal SPECT/CT imaging of BxPC-3 cancer xenografts; format: in vivo, BALB/c nude mice; details: BxPC-3 tumor-bearing mice, 37 MBq i.v., blocking dose of cold HK peptide, P < 0.001
Experimental: as §1
(§2) Small-animal SPECT/CT scans of subcutaneous BxPC-3 tumor and pulmonary fibrosis mouse models were performed using a SPECT/CT system (NanoScan; Mediso, Budapest, Hungary). Each BxPC-3-bearing mouse was injected via tail vein with 37 MBq (1 mCi) of ^99mTc–HYNIC–cHK. At 0.5 h and 1 h after injection, the mice were anesthetized by inhalation of 2% isoflurane and imaged using the Nano-SPECT/CT camera, The SPECT and CT fusion images were obtained using the automatic fusion software (InterView Fusion; Mediso Medical Imaging Systems, Budapest, Hungary).

[3] = 37 °C, 0, 0.5, 1, 2 and 4 h, radio-HPLC
Experimental: The in vitro solution stability of ^99mTc–HYNIC–cHK in fetal bovine serum (FBS) or L-cysteine was monitored by radio-HPLC.
^99mTc–HYNIC–cHK was incubated in FBS or L-cysteine (1.0 mg/mL) for 0, 0.5, 1, 2, and 4 h at 37 °C to test the in vitro solution stability. After passing through a 0.22-μm Millipore filter, the samples were analyzed by radio-HPLC.

[4] = target: T1, integrin αvβ6-positive BxPC-3 cells (Homo sapiens, UniProt P06756+P18564); test: Binding of ^99mTc–HYNIC–cHK to BxPC-3 cells, without or with cold peptide blocking; format: cell-based; details: 4 °C, 4 h
T1 construct: host or cells: BxPC-3 human pancreatic cancer cells
T1 sequence (P06756 31-889 limits assumed): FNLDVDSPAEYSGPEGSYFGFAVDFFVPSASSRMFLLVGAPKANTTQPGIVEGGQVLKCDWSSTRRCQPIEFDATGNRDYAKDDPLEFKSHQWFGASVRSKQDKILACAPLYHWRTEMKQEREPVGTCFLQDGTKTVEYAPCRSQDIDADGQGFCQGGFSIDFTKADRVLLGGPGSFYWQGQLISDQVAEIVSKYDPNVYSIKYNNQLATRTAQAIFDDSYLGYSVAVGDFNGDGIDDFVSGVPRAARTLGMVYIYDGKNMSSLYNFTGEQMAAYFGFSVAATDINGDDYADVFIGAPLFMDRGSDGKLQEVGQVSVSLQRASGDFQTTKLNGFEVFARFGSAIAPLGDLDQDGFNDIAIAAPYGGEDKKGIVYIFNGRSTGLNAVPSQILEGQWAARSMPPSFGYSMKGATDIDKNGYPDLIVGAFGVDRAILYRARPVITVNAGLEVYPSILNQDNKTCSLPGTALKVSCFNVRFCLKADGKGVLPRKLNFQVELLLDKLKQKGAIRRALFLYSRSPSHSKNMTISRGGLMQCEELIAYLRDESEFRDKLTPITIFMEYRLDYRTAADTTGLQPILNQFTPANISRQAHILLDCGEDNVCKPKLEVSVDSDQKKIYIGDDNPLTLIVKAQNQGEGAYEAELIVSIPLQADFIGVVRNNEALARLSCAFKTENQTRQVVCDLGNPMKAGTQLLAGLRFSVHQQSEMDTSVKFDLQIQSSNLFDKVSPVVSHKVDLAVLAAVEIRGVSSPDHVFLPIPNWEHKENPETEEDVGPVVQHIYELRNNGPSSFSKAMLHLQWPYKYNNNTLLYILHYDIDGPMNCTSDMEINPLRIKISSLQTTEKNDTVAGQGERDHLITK
T1 sequence (P06756 891-1048 partner limits assumed): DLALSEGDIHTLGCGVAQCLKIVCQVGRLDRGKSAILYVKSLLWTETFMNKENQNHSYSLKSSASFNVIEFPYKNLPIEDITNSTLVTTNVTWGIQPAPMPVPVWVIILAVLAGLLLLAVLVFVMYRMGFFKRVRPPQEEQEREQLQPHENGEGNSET
T1 sequence (P18564 22-788): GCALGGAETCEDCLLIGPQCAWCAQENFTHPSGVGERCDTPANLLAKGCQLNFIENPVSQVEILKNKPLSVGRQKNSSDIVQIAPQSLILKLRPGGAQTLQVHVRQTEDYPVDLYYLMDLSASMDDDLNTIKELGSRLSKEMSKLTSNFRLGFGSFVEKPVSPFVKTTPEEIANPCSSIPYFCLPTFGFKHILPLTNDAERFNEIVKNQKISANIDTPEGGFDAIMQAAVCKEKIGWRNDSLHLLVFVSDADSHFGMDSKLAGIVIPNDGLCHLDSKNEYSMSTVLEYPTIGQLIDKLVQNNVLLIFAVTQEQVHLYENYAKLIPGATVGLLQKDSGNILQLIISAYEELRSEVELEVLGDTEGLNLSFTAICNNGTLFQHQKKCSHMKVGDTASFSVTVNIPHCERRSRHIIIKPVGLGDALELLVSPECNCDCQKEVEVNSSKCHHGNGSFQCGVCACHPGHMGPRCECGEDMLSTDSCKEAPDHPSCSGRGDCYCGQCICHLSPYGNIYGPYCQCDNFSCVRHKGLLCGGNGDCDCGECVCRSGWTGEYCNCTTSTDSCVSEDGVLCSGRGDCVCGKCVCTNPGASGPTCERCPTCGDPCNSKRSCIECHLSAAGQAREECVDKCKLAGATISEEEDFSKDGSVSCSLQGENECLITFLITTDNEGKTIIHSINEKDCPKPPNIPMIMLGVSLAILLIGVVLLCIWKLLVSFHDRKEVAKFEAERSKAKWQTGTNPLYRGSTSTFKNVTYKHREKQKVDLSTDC
Experimental: The binding specificity of ^99mTc–HYNIC–cHK to integrin αvβ6 was evaluated in integrin αvβ6-positive BxPC-3 cells.
In vitro integrin αvβ6 binding specificity of ^99mTc–HYNIC–cHK was tested using the integrin αvβ6-positive BxPC-3 cells. Briefly, cells were seeded into 12-well plates and incubated overnight at 37 °C to allow adherence. After brief washing with PBS, tumor cells were incubated with 3.7 kBq ^99mTc–HYNIC–cHK with or without an excess dose of cold cHK or HK peptide at 4 °C for 4 h. Tumor cells were then washed with chilled PBS and harvested by trypsinization with 0.05% trypsin. The cell suspensions were collected and measured in a γ-counter (Wallac 1470-002, Perkin-Elmer, Finland). The cell uptake was expressed as the percent added dose (%AD). Experiments were performed twice with triplicate samples.

[5] = system: bleomycin-induced fibrotic lungs; test: SPECT/CT imaging of bleomycin-induced pulmonary fibrosis; format: in vivo; details: C57/BL6 mice, 0.5 h after injection
Experimental: as §1, §2
Each BLM- or PBS-treated mouse was administered with 37 MBq of ^99mTc–HYNIC–cHK via tail vein. […]

[6] = for degree of metabolism in blood: mouse blood, 1 mCi i.v.
Experimental: We performed the metabolism studies of ^99mTc–HYNIC–cHK using normal BALB/c mice. We analyzed the samples from both blood and urine to determine whether the radiotracer retains its chemical integrity at 0.5 h and 1 h postinjection.
The metabolic stability of ^99mTc–HYNIC–cHK was evaluated in female BALB/c normal mice. Each mouse was administered with the radiotracer at a dose of 1 mCi in 100 μl saline via intravenous injection. At 0.5 h and 1 h postinjection, the blood and urine samples were collected. The samples were centrifuged at 8000 r/min for 15 min. The supernatant was collected, filtered through a 0.22-μm Millipore filter, and then analyzed by radio-HPLC.

[7] = target: T2, integrin αvβ6 on BxPC-3 cells (Homo sapiens, UniProt P06756+P18564); test: Displacement cell-binding assay with ^125I–HYK as radioligand
T2 construct: Experiments were performed on high integrin αvβ6-expressing BxPC-3 cells; host or cells: BxPC-3 human pancreatic cancer cells
T2 sequence (P06756 31-889 limits assumed): as the sequence (P06756 31-889 limits assumed) above
T2 sequence (P06756 891-1048 partner limits assumed): as the sequence (P06756 891-1048 partner limits assumed) above
T2 sequence (P18564 22-788): as the sequence (P18564 22-788) above
Experimental: In vitro integrin αvβ6 binding affinities of cHK and HK were compared via displacement cell-binding assays (Dong et al. [2015]) using ^125I–HYK as the radioligand. ^125I–HYK was prepared by labeling HYK with Na^125I using the Iodogen method as previously reported (Liu et al. [2010]). Experiments were performed on high integrin αvβ6-expressing BxPC-3 cells. The best-fit 50% inhibitory concentration (IC50) values were calculated by fitting the data with nonlinear regression using Graph-Pad Prism (GraphPad Software, Inc.).

CC(C)C[C@H](NC(=O)[C@H](CC(=O)O)NC(=O)CNC(=O)[C@@H](N)CCCNC(=N)N)C(=O)N[C@@H](C)C(=O)N[C@H](C(=O)N[C@@H](CC(C)C)C(=O)N[C@@H](CCCNC(=N)N)C(=O)N[C@@H](CCC(N)=O)C(=O)N[C@@H](CC(C)C)C(=O)N[C@@H](C)C(=O)N[C@@H](CCC(N)=O)C(=O)N[C@@H](CCC(=O)O)C(=O)N[C@@H](CC(=O)O)C(=O)NCC(=O)N[C@H](C(=O)N[C@H](C(=O)NCC(=O)N[C@H](C(=O)N[C@@H](CCCNC(=N)N)C(=O)N[C@@H](CCCCNC(=O)c1ccc(NN)nc1)C(=O)O)C(C)C)C(C)C)C(C)C)[C@@H](C)O [^99mTc–HYNIC–HK, metal not drawn, reference compound] (H-RGDLATLRQLAQEDGVVGVRK(HYNIC)-OH; N-terminus and C-terminus assumed)
time to complete degradation in vivo after injection [1]: ≤ 30 min | tissue to tissue ratio at 0.5 h ([2]; mouse, 370 kBq): 1.82 ± 0.27 | tissue uptake at 0.5 h ([2]; mouse, 370 kBq): 0.58 ± 0.09 %ID/g

CC(C)C[C@@H]1NC(=O)[C@H](CC(=O)O)NC(=O)CNC(=O)[C@H](CCCNC(=N)N)NC(=O)[C@@H](N)CSSC[C@@H](C(=O)O)NC(=O)[C@H](CCCCNC(=O)c2ccc(NN)nc2)NC(=O)[C@H](CC(C)C)NC(=O)[C@H]([C@@H](C)O)NC(=O)[C@H](C)NC1=O [^99mTc–HYNIC–cHK, metal not drawn] (H-CRGDLATLK(HYNIC)C-OH; disulfide 1-10)
tumor uptake in the HK blocking group (SPECT) (BxPC-3 tumors): almost completely inhibited | time remaining stable in the presence of L-cysteine ([3]; L-cysteine 1.0 mg/mL): more than 4 h | time remaining stable in FBS ([3]; fetal bovine serum): more than 4 h | binding of ^99mTc–HYNIC–cHK to BxPC-3 cells (cell uptake) ([4]; with excess cold HK peptide (300 μg) blocking): 0.06 ± 0.007 %AD | binding of ^99mTc–HYNIC–cHK to BxPC-3 cells (cell uptake) ([4]; with excess cold cHK peptide (300 μg) blocking): 0.03 ± 0.005 %AD | binding of ^99mTc–HYNIC–cHK to BxPC-3 cells (cell uptake) ([4]; without blocking, 3.7 kBq tracer, γ-counter, twice with triplicate samples): 0.79 ± 0.01 %AD | lung uptake in PBS-treated mice (SPECT/CT) ([5]; PBS control, 37 MBq i.v.): no significant uptake | lung uptake in BLM-treated mice (SPECT/CT) ([5]; bleomycin 1.5 units/kg intratracheal, day 21, 37 MBq i.v.): evident accumulation | in vivo stability compared to ^99mTc–HYNIC–HK ([6]; comparison with linear peptide-based radiotracer (Liu et al. [2014b])): much more stable in vivo | degree of metabolism in blood ([6]; 0.5 h postinjection, radio-HPLC): 9.94% | degree of metabolism in blood ([6]; 1 h postinjection, radio-HPLC): 30.09% | chemical integrity in urine ([6]; mouse urine, 0.5 h and 1 h postinjection, radio-HPLC): retained its integrity | tissue uptake at 1 h ([2]; BxPC-3 tumors, blocking with HK peptide 500 μg per mouse, n = 4, read-out: tumor uptake with coinjection of cold HK peptide): 0.24 ± 0.04 %ID/g | tissue to tissue ratio at 0.5 h ([2]; mouse, 370 kBq, BxPC-3 tumor-bearing nude mice, 0.5 h after injection, n = 4, read-out: tumor-to-muscle (T/M) ratio): 2.99 ± 0.87 | tissue uptake at 1 h ([2]; mouse, 370 kBq, BxPC-3 tumors, mean ± SD, n = 4, read-out: tumor uptake): 0.43 ± 0.09 %ID/g | tissue uptake at 2 h ([2]; mouse, 370 kBq, BxPC-3 tumors, 2 h after injection, mean ± SD, n = 4): 0.33 ± 0.16 %ID/g | tissue uptake at 0.5 h ([2]; mouse, BxPC-3 tumors, 0.5 h after injection, 370 kBq i.v., mean ± SD, n = 4, read-out: tumor uptake): 0.63 ± 0.18 %ID/g

CC(C)C[C@@H]1NC(=O)[C@H](CC(=O)O)NC(=O)CNC(=O)[C@H](CCCNC(=N)N)NC(=O)[C@@H](N)CSSC[C@@H](C(=O)O)NC(=O)[C@H](CCCCN)NC(=O)[C@H](CC(C)C)NC(=O)[C@H]([C@@H](C)O)NC(=O)[C@H](C)NC1=O [cHK] (H-CRGDLATLKC-OH; disulfide 1-10)
IC50 [7]: 20.3 ± 1.17 nM

RGDLATLRQLAQEDGVVGVRK [HK, reference compound]
IC50 ([7]; displacement cell-binding assay, BxPC-3 cells, nonlinear regression fit, read-out: IC50, inhibition of ^125I–HYK binding to integrin αvβ6 on BxPC-3 cells): 3.55 ± 0.09 nM
